The data set deals with the molecule itself. Description: crystal structure; hanging-drop vapour diffusion at 4°C, 2.2 M ammonium sulfate, 100 mM sodium acetate pH 4.25 and 4.75; crystals soaked with 4NPG (one also with GSH); one protomer in the asymmetric unit, dimer by crystallographic two-fold.

B1: hGSTO1-1 C32A mutant (human omega-class glutathione transferase 1-1, active-site mutant) (enzyme)
chain: MSGESARSLGKGSAPPGPVPEGSIRIYSMRFAPFAERTRLVLKAKGIRHEVININLKNKPEWFFKKNPFGLVPVLENSQGQLIYESAITCEYLDEAYPGKKLLPDDPYEKACQKMILELFSKVPSLVGSFIRSQNKEDYAGLKEEFRKEFTKLEEVLTNKKTTFFGGNSISMIDYLIWPWFERLEAMKLNECVDHTPKLKLWMAAMKEDPTVSALLTSEKDWQGFLELYLQNSPEACDYGL
notes: human glutathione transferase omega 1 (hGSTO1), C32A active-site mutant; after cleavage no additional N-terminal residues; residues 4 to 241 are seen in the final model; Homodimer; the dimer is produced by two-fold crystallographic symmetry (one protomer in the asymmetric unit); Crystals held GSSG, 4NPG, DTT and sulfate; source: E. coli BL21 (DE3), purified (Ni-NTA agarose, cleavage by …)
B1: the binding result is on record as “binds”.

Source of the values: article PMC3621891, “Structural Insights into Omega-Class Glutathione Transferases: A Snapshot of Enzyme Reduction and Identification of a Non-Catalytic Ligandin Site” (PLoS ONE, 2013).
